Legend:
[1] = molecular target: cation-independent mannose-6-phosphate/IGF-II receptor on GM4668 human skin fibroblasts (human) (UniProt P11717); assay: cell-based or functional assay
[2] = molecular target: cation-independent mannose-6-phosphate/IGF-II receptor on GM4668 human skin fibroblasts (human) (UniProt P11717)
[3] = molecular target: cation-independent mannose-6-phosphate/IGF-II receptor on GM4668 human skin fibroblasts (human) (UniProt P11717); remark: listed apart in the source

UniProt P11717, sequence (P11717 41-2491): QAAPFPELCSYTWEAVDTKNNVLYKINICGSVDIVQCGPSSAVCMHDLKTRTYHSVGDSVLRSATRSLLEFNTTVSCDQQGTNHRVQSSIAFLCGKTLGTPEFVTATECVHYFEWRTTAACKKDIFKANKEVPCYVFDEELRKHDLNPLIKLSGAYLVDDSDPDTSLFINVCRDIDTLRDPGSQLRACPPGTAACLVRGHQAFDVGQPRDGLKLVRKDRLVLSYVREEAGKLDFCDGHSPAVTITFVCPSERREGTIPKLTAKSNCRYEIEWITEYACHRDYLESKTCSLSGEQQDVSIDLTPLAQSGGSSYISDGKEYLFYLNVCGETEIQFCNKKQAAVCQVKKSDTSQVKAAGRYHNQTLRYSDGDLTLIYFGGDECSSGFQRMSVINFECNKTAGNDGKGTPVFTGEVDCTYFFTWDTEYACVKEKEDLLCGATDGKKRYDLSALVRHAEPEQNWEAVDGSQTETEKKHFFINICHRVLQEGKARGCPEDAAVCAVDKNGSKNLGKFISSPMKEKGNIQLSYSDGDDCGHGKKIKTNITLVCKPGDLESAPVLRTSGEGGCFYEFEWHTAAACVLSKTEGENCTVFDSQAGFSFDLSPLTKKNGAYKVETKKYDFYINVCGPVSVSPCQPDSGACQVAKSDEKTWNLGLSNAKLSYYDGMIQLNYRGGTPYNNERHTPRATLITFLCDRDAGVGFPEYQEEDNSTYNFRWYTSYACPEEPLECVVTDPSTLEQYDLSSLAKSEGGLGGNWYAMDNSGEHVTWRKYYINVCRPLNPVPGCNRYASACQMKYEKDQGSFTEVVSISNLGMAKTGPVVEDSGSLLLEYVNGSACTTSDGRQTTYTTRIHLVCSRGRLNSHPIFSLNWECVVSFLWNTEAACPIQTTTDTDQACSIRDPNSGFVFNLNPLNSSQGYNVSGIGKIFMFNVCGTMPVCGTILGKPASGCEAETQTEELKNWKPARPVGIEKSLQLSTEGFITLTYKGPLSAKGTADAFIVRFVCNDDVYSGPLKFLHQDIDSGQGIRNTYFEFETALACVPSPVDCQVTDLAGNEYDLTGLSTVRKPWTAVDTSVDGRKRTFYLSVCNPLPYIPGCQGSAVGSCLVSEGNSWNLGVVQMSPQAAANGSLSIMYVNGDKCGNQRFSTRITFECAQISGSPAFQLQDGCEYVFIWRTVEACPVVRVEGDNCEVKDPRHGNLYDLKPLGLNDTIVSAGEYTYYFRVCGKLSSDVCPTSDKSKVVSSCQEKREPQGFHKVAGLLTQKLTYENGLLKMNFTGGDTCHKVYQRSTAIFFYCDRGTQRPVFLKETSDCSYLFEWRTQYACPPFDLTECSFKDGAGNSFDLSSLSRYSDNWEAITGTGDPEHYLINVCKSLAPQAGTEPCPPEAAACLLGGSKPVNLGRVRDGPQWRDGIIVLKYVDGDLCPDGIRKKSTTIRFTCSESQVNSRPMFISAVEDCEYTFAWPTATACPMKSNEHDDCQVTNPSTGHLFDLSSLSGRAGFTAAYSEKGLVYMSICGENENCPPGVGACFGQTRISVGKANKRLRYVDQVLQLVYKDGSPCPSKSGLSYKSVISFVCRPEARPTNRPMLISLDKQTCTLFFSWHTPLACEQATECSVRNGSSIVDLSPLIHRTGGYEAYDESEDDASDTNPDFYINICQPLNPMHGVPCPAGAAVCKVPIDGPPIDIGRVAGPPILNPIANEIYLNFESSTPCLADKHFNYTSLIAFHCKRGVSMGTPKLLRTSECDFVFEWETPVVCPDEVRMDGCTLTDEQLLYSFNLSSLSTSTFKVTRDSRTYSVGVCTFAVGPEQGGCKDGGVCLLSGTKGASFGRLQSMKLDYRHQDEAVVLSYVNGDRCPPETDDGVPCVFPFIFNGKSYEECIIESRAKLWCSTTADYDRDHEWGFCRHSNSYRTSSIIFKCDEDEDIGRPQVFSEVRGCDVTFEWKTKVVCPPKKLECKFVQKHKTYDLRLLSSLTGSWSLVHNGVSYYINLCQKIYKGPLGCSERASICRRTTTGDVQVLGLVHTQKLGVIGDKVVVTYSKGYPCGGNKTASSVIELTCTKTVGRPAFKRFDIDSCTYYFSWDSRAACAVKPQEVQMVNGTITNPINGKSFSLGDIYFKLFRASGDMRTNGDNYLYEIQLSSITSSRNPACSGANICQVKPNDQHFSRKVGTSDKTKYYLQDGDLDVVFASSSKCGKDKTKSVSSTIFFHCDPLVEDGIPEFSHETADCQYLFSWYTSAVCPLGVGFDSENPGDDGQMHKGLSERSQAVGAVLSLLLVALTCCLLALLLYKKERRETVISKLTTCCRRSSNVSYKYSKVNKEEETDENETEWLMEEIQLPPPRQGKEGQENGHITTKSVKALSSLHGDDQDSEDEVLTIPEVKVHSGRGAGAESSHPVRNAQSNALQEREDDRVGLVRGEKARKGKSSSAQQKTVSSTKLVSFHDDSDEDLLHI

CHO GUS (from UniProt P08236 23-651) (enzyme)
+IGF-II (units/mg): uptake with excess IGF-II, 18 hours [1]: 336 units/mg
+M6P (units/mg): uptake with excess M6P, 18 hours [1]: 1 units/mg
Uptake (units/mg), GM4668 fibroblasts, 18 hours [1]: 352 units/mg

CHO GUS-GILTΔ1-7 (from UniProt P08236 23-651)
+IGF-II (units/mg): uptake with excess IGF-II, 18 hours [1]: 84 units/mg
+M6P (units/mg): uptake with excess M6P, 18 hours [1]: 223 units/mg
Uptake (units/mg), GM4668 fibroblasts, 18 hours [1]: 310 units/mg

CHO GUSΔC18-GILTΔ1-7 (from UniProt P08236 23-633)
% IGF-II +M6P inhibition of uptake [1]: 100%
+IGF-II (units/mg): uptake with IGF-II, 22.5 hours [1]: 473 units/mg
+IGF-II (units/mg): uptake with excess IGF-II, 18 hours [1]: 258 units/mg
+IGF-II +M6P (units/mg): uptake with both inhibitors, 22.5 hours [1]: 0 units/mg
+IGF-II Uptake (units/mg), 21 hours [1]: 1010 units/mg
+M6P (units/mg): uptake with 8 mM M6P, 22.5 hours [1]: 639 units/mg
+M6P (units/mg): uptake with excess M6P, 18 hours [1]: 412 units/mg
Uptake (units/mg), GM4668 fibroblasts, 18 hours [1]: 704 units/mg
Uptake (units/mg), MPS VII fibroblasts, 21 hours [1]: 4080 units/mg
Uptake (units/mg), fibroblasts, 22.5 hours [1]: 1580 units/mg

GILT-GUS with Δ1-7 and Y27L mutations in the IGF-II portion, Leishmania-expressed (from UniProt P08236 23-651)
cell-associated GUS activity in GM4668 fibroblasts, fold over unmodified GUS [1]: 5 fold

GUS (enzyme)
cell-associated GUS activity in GM4668 fibroblast lysate after uptake of about 350-600 units of ConA-purified enzyme (untagged comparison) (Units/mg protein) [2]: 3.38
cell-associated GUS activity in GM4668 fibroblast lysate after about 18 h uptake, 150 U enzyme per well (untagged comparison) [3]: 4.5 U/mg lysate

GUS-GILTΔ1-7 (from UniProt P08236)
cell-associated GUS activity in GM4668 fibroblast lysate after uptake of about 350-600 units of ConA-purified enzyme in the presence of excess IGF-II as competitor (Units/mg protein) [2]: 13.5
cell-associated GUS activity in GM4668 fibroblast lysate after uptake of about 350-600 units of ConA-purified enzyme, no competitor (Units/mg protein) [2]: 245

GUS-IGF-II fusion protein (GUS-GILT), Leishmania-expressed
cell-associated GUS activity in GM4668 fibroblast lysate after uptake of about 350-600 units of ConA-purified enzyme in the presence of excess IGF-II as competitor (Units/mg protein) [2]: 7.93
cell-associated GUS activity in GM4668 fibroblast lysate after uptake of about 350-600 units of ConA-purified enzyme, no competitor (Units/mg protein) [2]: 55.1
cell-associated GILT-GUS in GM4668 fibroblasts, no IGF-II (units/mg lysate) [1]: > 24
cell-associated GILT-GUS in GM4668 fibroblasts, with excess IGF-II [1]: 5.4 U
cell-associated GUS activity in GM4668 fibroblasts, fold over unmodified GUS [1]: 10 fold
cell-associated GUS activity in GM4668 fibroblast lysate after about 18 h uptake, 150 U enzyme per well, no competitor [3]: 24.1 U/mg lysate

HEK GUS-GILT (from UniProt P08236 23-651)
Uptake (units/mg), MPS VII fibroblasts, 21 hours [1]: 1430 units/mg

HEK GUS-GILTF19S (from UniProt P08236 23-651)
% IGF-II +M6P inhibition of uptake [1]: 99.1%
+IGF-II (units/mg): uptake with IGF-II, 22.5 hours [1]: 217 units/mg
+IGF-II +M6P (units/mg): uptake with both inhibitors, 22.5 hours [1]: 15 units/mg
+IGF-II Uptake (units/mg), 21 hours [1]: 439 units/mg
+M6P (units/mg): uptake with 8 mM M6P, 22.5 hours [1]: 952 units/mg
Uptake (units/mg), MPS VII fibroblasts, 21 hours [1]: 4730 units/mg
Uptake (units/mg), fibroblasts, 22.5 hours [1]: 1590 units/mg

HEK GUS-GILTF19SE12K (from UniProt P08236 23-651)
% IGF-II +M6P inhibition of uptake [1]: 100%
+IGF-II (units/mg): uptake with IGF-II, 22.5 hours [1]: 22 units/mg
+IGF-II +M6P (units/mg): uptake with both inhibitors, 22.5 hours [1]: 0 units/mg
+IGF-II Uptake (units/mg), 21 hours [1]: 388 units/mg
+M6P (units/mg): uptake with 8 mM M6P, 22.5 hours [1]: 846 units/mg
Uptake (units/mg), MPS VII fibroblasts, 21 hours [1]: 4230 units/mg
Uptake (units/mg), fibroblasts, 22.5 hours [1]: 1230 units/mg

HEK GUS-GILTY27L (from UniProt P08236 23-651)
Uptake (units/mg), MPS VII fibroblasts, 21 hours [1]: 1510 units/mg

HEK GUSΔC18-GILTΔ1-7 (from UniProt P08236 23-633)
+IGF-II Uptake (units/mg), 21 hours [1]: 1210 units/mg
Uptake (units/mg), MPS VII fibroblasts, 21 hours [1]: 5190 units/mg

— patent publication US20190224282A1
